Experimental data published in PMC9688528.

Key:
Assay in all cases: target-induced aptamer displacement, RDV release by UV-vis at 247 nm
[1] = system: fibrinogen (FIB); conditions: 2 uM FIB; 3'-SH on aptamer; 5'-COOH on complementary strand; Release assay buffer and temperature not given; Au-DNA stored in PBS (137 mM NaCl, 2.7 mM KCl, 10 mM Na2HPO4, 1.75 mM KH2PO4, 50 mM MgCl2, pH 7.4)
[2] = system: alkaline phosphatase (AKP); conditions: 20 U/mL AKP; 3'-SH on aptamer; 5'-COOH on complementary strand; Release assay buffer and temperature not given; Au-DNA stored in PBS (137 mM NaCl, 2.7 mM KCl, 10 mM Na2HPO4, 1.75 mM KH2PO4, 50 mM MgCl2, pH 7.4)
[3] = system: immunoglobulin G (IgG); conditions: 2 uM IgG; 3'-SH on aptamer; 5'-COOH on complementary strand; Release assay buffer and temperature not given; Au-DNA stored in PBS (137 mM NaCl, 2.7 mM KCl, 10 mM Na2HPO4, 1.75 mM KH2PO4, 50 mM MgCl2, pH 7.4)
[4] = system: cytochrome c; conditions: 2 uM cytochrome c; 3'-SH on aptamer; 5'-COOH on complementary strand; Release assay buffer and temperature not given; Au-DNA stored in PBS (137 mM NaCl, 2.7 mM KCl, 10 mM Na2HPO4, 1.75 mM KH2PO4, 50 mM MgCl2, pH 7.4)
[5] = system: hemoglobin (HGB); conditions: 2 uM HGB; 3'-SH on aptamer; 5'-COOH on complementary strand; Release assay buffer and temperature not given; Au-DNA stored in PBS (137 mM NaCl, 2.7 mM KCl, 10 mM Na2HPO4, 1.75 mM KH2PO4, 50 mM MgCl2, pH 7.4)

## GCTGGATGTCGCTTACGACAATATTCCTTAGGGGCACCGCTACATTGACACATCCAGC / TTGTACTGGCTCATAGCTGGATGTGTCAATGTAGCGGTGCCCCTAAGGAATATTGTCGTAAGCG
[1]
  binding signal (% of N protein signal): 4.56
[2]
  binding signal (% of N protein signal): 11.6
[3]
  binding signal (% of N protein signal): 7.05
[4]
  binding signal (% of N protein signal): 9.13
[5]
  binding signal (% of N protein signal): 6.22
